Reference: US12144818B2, “Method for treating cancer in a human patient by administering an anti-CD37 immunoconjugate using various dosing regimens” (DEBIOPHARM INTERNATIONAL, S.A., priority 2018, dated 2024)

How the values were obtained:
[1] = Phase 1 monotherapy study, safety; format: in vivo, human
Method: As such, a more frequent QW dosing schedule with 0.4/0.2/0.2 mg/kg (combined with rituximab Q3W at 375 mg/m^2) should not increase the risk of neutropenia.

CD37 [2] = target: T1, CD37 (Homo sapiens, UniProt P11049); assay: Theoretical receptor occupancy derived from observed Cmax, monotherapy Phase 1 study; format: in vivo; conditions: even at low dose levels
T1 construct: endogenous in cells; host or cells: CD3+ T and CD56+ NK lymphocytes in blood samples from DLBCL patients of Cohorts A and B
T1 sequence (P11049 1-281): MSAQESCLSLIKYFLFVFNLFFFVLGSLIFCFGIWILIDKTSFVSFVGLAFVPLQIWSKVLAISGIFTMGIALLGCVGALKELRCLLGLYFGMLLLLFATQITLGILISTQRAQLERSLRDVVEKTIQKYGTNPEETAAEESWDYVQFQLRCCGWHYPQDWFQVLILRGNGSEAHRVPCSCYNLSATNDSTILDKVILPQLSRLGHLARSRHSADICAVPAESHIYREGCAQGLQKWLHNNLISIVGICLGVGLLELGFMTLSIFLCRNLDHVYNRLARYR
Method: Therefore, a 0.4 mg/kg loading dose followed by 2 weekly doses of 0.2 mg/kg is expected to provide adequate target saturation across a 3-weeks cycle.

CD37 [3] = target: T1, CD37; assay: CD37 receptor occupancy on CD3+T and CD56+NK cells of Cohort A and B subjects; format: in vivo
Source text: The maximum RO observed at C1D2 (cycle 1-dose 2) and C1D3 was greater than 90% for both cohorts.

[4] = QW versus Q3W regimen, with rituximab
Method: Adverse events are monitored continuously throughout the study. Adverse events include any noxious, pathologic, or unintended change in anatomical, physiologic, or metabolic function as indicated by physical signs, symptoms, or laboratory changes occurring in any phase of a clinical study, whether or not considered study drug-related. PK parameters that are evaluated include, but are not limited to: Cmax, Tmax, Terminal half-life (t1/2), Vss, CL, AUC0-t, AUCinf.

[5] = system: panel of cell lines representative of diverse NHL subtypes (ABC and GCB DLBCL, CLL, MCL); conditions: in combination with rituximab; described in WO 2016/200676; cited from earlier work
[6] = low doses such as 0.4 mg/kg and 0.2 mg/kg; cited from earlier work

Debio 1562: immunoconjugate containing the huCD37-3 antibody, the SMCC linker, and the DM1 maytansinoid
maximum tolerated dose (MTD) ([1]; Phase 1, without G-CSF): 1 mg/kg
neutrophil count ([1]; majority of patients, single Q3W dosing with 0.2-0.4 mg/kg, Phase 1): no decrease in neutrophil count
saturation of the CD37 sites (theoretical receptor occupancy) (CD37 [2]): > 95%
CD37 receptor occupancy (RO) after administration (CD37 [3]; C1D1, CD3+T and CD56+NK lymphocytes, Cohorts A and B): greater than 80%
maximum RO (CD37 [3]; C1D2 and C1D3, both cohorts): greater than 90%
RO just before re-administration (CD37 [3]; samples just before re-administration in cycle 2 and cycle 3): No RO was observed
safety [4]: comparable in the QW regimen and the Q3W regimen
pro-apoptotic activity of the combination [5]: synergistic pro-apoptotic activity
clearance [6]: substantially higher at low doses
half-life [6]: lower
